Here are results for 67 sequences from the supplement of paper PMC10724198.

± gives the standard deviation of the averaged measurements.

The subject of the series is Saccharomyces cerevisiae. The experiment in a line: protein stability index of tFT-peptide fusion (C-terminal peptide) (PSI (0-1 scale)); higher = more stable (slower turnover). The settings on record: temperature: 30 C. As to the method:
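MPS profiling in S. cerevisiae of the yeast C-terminome library: the last 12 aa of each annotated ORF are fused to the C-terminus of a sfGFP-mCherry timer, after a GGGS linker. Cells are FACS-sorted into 8 mCherry/sfGFP bins and deep-sequenced. PSI runs from 0 (unstable) to 1 (stable); wild type and das1Δ backgrounds, two technical replicates each.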

Setting [1] is: genetic background: das1 deletion.

For the sequence LKKEKLQALPTP [PDP3 C-terminal 12 aa], the protein stability index reads like this: under setting [1], 0.691 ± 0.00082; (genetic background: wild type) 0.675 ± 0.011.

Sequence LKLEQKIGELSK [CRN1 C-terminal 12 aa] registered a protein stability index under setting [1] of 0.679 ± 0.0071 and a protein stability index (genetic background: wild type) of 0.718 ± 0.097.

For the sequence LKNGDKPHMLKF [RPL6A C-terminal 12 aa], the protein stability index is 0.6789 ± 0.0021 under setting [1] and 0.72 ± 0.053 (genetic background: wild type).

As to LKQIEMISGFSL [ADF1 C-terminal 12 aa], the protein stability index was 0.707 ± 0.012 under setting [1] and 0.683 ± 0.053 (genetic background: wild type).

In the case of “LKTTPCLTHWYN [YIR030W-A C-terminal 12 aa]”, the protein stability index under setting [1] was found to be 0.699 ± 0.022 and the protein stability index (genetic background: wild type) amounted to 0.663 ± 0.033.

For LLCRDSSREVGE [YBL113C C-terminal 12 aa], the protein stability index came out at 0.702 ± 0.022 under setting [1] and 0.673 ± 0.014 (genetic background: wild type).

In the case of LLEGIIIKLFLY [YDL011C C-terminal 12 aa], the protein stability index runs as follows: under setting [1], 0.423 ± 0.0049; (genetic background: wild type) 0.174 ± 0.0066.

“LLGVGIAFYQDR [YJR112W-A C-terminal 12 aa]” yielded a protein stability index under setting [1] of 0.706 ± 0.033 and a protein stability index (genetic background: wild type) of 0.678 ± 0.018.

Consider LLLKVEKKGSKK [HTZ1 C-terminal 12 aa], for which the protein stability index turned out to be 0.706 ± 0.034 under setting [1] and 0.716 ± 0.041 (genetic background: wild type).

For LLLQKSGTYLLL [ARV1 C-terminal 12 aa], the protein stability index by setting is: under setting [1], 0.639 ± 0.032; (genetic background: wild type) 0.638 ± 0.0066.

Sequence LLLSIFSILIVL [YPS7 C-terminal 12 aa] had a protein stability index under setting [1] of 0.321 ± 0.0053 and a protein stability index (genetic background: wild type) of 0.2802 ± 0.0025.

Take LLMVSVVNFVPL [YPL182C C-terminal 12 aa]: the protein stability index by setting is: under setting [1], 0.474 ± 0.034; (genetic background: wild type) 0.479 ± 0.0093.

Consider LLNDIKRRNMGR [MET28 C-terminal 12 aa], for which the protein stability index stood at 0.6834 ± 0.0045 under setting [1] and 0.723 ± 0.12 (genetic background: wild type).

LLRNGDIDTITK [COG3 C-terminal 12 aa]: the protein stability index is 0.7045 ± 0.0048 under setting [1] and 0.68 ± 0.016 (genetic background: wild type).

With LLYLYDNDHTST [GPI19 C-terminal 12 aa], the protein stability index reads like this: under setting [1], 0.72 ± 0.058; (genetic background: wild type) 0.6907 ± 0.0034.

LMAKRFQTGSLK [RTS3 C-terminal 12 aa]: the protein stability index amounted to 0.7028 ± 0.00076 under setting [1] and 0.716 ± 0.043 (genetic background: wild type).

Take LMFSKLGRYLFN [NSG1 C-terminal 12 aa]: the protein stability index worked out at 0.6857 ± 0.0016 under setting [1] and 0.655 ± 0.021 (genetic background: wild type).

For LMLGVAYYLLNE [CYB5 C-terminal 12 aa], the protein stability index is, setting by setting: under setting [1], 0.624 ± 0.044; (genetic background: wild type) 0.649 ± 0.048.

Consider LMVENFRKEYII [PTI1 C-terminal 12 aa], for which the protein stability index was found to be 0.7001 ± 0.002 under setting [1] and 0.547 ± 0.031 (genetic background: wild type).

Consider LMYIYQAFTTQD [GDT1 C-terminal 12 aa], for which the protein stability index turned out to be 0.684 ± 0.011 under setting [1] and 0.663 ± 0.036 (genetic background: wild type).

LNAFQHPIVEFQ [YEL028W C-terminal 12 aa]: the protein stability index was found to be 0.755 ± 0.013 under setting [1] and 0.69 ± 0.022 (genetic background: wild type).

Consider LNDIGDPTKTVQ [YPL025C C-terminal 12 aa], for which the protein stability index was 0.689 ± 0.0087 under setting [1] and 0.705 ± 0.0072 (genetic background: wild type).

For the sequence LNEYSKDPPGNN [RAD18 C-terminal 12 aa], the protein stability index was determined as 0.704 ± 0.018 under setting [1] and 0.707 ± 0.021 (genetic background: wild type).

Regarding LNNFKFKTNSKQ [XBP1 C-terminal 12 aa], the protein stability index runs as follows: under setting [1], 0.713 ± 0.027; (genetic background: wild type) 0.679 ± 0.022.

For LNNTAASTGPGR [YKE2 C-terminal 12 aa], the protein stability index runs as follows: under setting [1], 0.684 ± 0.011; (genetic background: wild type) 0.655 ± 0.0052.

As for LNRKEESDSFVA [CHS3 C-terminal 12 aa], the protein stability index stood at 0.6769 ± 0.0027 under setting [1] and 0.679 ± 0.017 (genetic background: wild type).

For the sequence LNTSNECCTSDD [BIL2 C-terminal 12 aa], the protein stability index runs as follows: under setting [1], 0.692 ± 0.023; (genetic background: wild type) 0.669 ± 0.016.

With “LNTYVILFYTVY [YOL166W-A C-terminal 12 aa]”, the protein stability index came out at 0.273 ± 0.046 under setting [1] and 0.263 ± 0.0054 (genetic background: wild type).

As to “LPHFSHLHVHHD [YHR056W-A C-terminal 12 aa]”, the protein stability index reads like this: under setting [1], 0.7294 ± 0.0032; (genetic background: wild type) 0.719 ± 0.032.

For the sequence LPPGLNSKKNIK [EAP1 C-terminal 12 aa], the protein stability index is, setting by setting: under setting [1], 0.69532 ± 0.00062; (genetic background: wild type) 0.658 ± 0.01.

Regarding LPQRSIPCAIYP [YCR108C C-terminal 12 aa], the protein stability index by setting is: under setting [1], 0.687 ± 0.012; (genetic background: wild type) 0.7045 ± 0.0036.

Take LSAGFGIGEFML [YGR079W C-terminal 12 aa]: the protein stability index is, setting by setting: under setting [1], 0.72 ± 0.023; (genetic background: wild type) 0.692 ± 0.036.

The sequence LSAIVFLGTSSH [AVT5 C-terminal 12 aa] returned a protein stability index under setting [1] of 0.7155 ± 0.0055 and a protein stability index (genetic background: wild type) of 0.704 ± 0.021.

Regarding LSDKNPEFKYMY [TNA1 C-terminal 12 aa], the protein stability index turned out to be 0.686 ± 0.0071 under setting [1] and 0.706 ± 0.0095 (genetic background: wild type).

In the case of LSEASKLASKPL [COX15 C-terminal 12 aa], the protein stability index was 0.701 ± 0.0094 under setting [1] and 0.704 ± 0.039 (genetic background: wild type).

For LSLRSLQIMGRN [DSS4 C-terminal 12 aa], the protein stability index runs as follows: under setting [1], 0.6993 ± 0.00084; (genetic background: wild type) 0.726 ± 0.024.

LSSKKQTVMDKE [POL5 C-terminal 12 aa]: the protein stability index stood at 0.6463 ± 0.0045 under setting [1] and 0.749 ± 0.051 (genetic background: wild type).

As for LSTKNIDDGMIS [COG7 C-terminal 12 aa], the protein stability index under setting [1] was 0.706 ± 0.025 and the protein stability index (genetic background: wild type) was 0.679 ± 0.052.

LVEILDCEIRTL [MIC60 C-terminal 12 aa]: the protein stability index is 0.6827 ± 0.0058 under setting [1] and 0.6707 ± 0.0035 (genetic background: wild type).

As to LVFALLTCFEDG [YDR209C C-terminal 12 aa], the protein stability index was determined as 0.481 ± 0.0089 under setting [1] and 0.505 ± 0.014 (genetic background: wild type).

For the sequence LVGGGIKKSGKK [TMA7 C-terminal 12 aa], the protein stability index runs as follows: under setting [1], 0.67 ± 0.016; (genetic background: wild type) 0.736 ± 0.011.

Take LVHFLGLILNNF [YNL171C C-terminal 12 aa]: the protein stability index runs as follows: under setting [1], 0.68 ± 0.018; (genetic background: wild type) 0.624 ± 0.014.

Take LVHIKMENGIVS [IZH2 C-terminal 12 aa]: the protein stability index reads like this: under setting [1], 0.65319 ± 0.00027; (genetic background: wild type) 0.693 ± 0.019.

With LYGPSKTRKFFD [VMA4 C-terminal 12 aa], the protein stability index stood at 0.724 ± 0.027 under setting [1] and 0.692 ± 0.011 (genetic background: wild type).

For LYGQRFLATGFQ [AIM19 C-terminal 12 aa], the protein stability index under setting [1] came out at 0.714 ± 0.0097 and the protein stability index (genetic background: wild type) came to 0.705 ± 0.024.

For the sequence LYLLLARVFEIW [SNF11 C-terminal 12 aa], the protein stability index under setting [1] is 0.567 ± 0.059 and the protein stability index (genetic background: wild type) stood at 0.5614 ± 0.0025.

For LYQCRMPCLYSI [YGL193C C-terminal 12 aa], the protein stability index was 0.659 ± 0.026 under setting [1] and 0.586 ± 0.014 (genetic background: wild type).

As to LYWDPSWITRQL [SNF8 C-terminal 12 aa], the protein stability index was 0.716 ± 0.019 under setting [1] and 0.621 ± 0.043 (genetic background: wild type).

As to MDPMSPLNKDVS [YMR196W C-terminal 12 aa], the protein stability index worked out at 0.692 ± 0.0081 under setting [1] and 0.73 ± 0.05 (genetic background: wild type).

As to MFTSDKKTEQTT [URC2 C-terminal 12 aa], the protein stability index under setting [1] worked out at 0.708 ± 0.0052 and the protein stability index (genetic background: wild type) amounted to 0.695 ± 0.011.

In the case of MGSSRRTSLDFF [YBR071W C-terminal 12 aa], the protein stability index by setting is: under setting [1], 0.7242 ± 0.0015; (genetic background: wild type) 0.693 ± 0.025.

For the sequence MIDELDYNINFA [UGA3 C-terminal 12 aa], the protein stability index is, setting by setting: under setting [1], 0.7 ± 0.013; (genetic background: wild type) 0.791 ± 0.076.

In the case of MILKVSLECAVS [YDL009C C-terminal 12 aa], the protein stability index came to 0.468 ± 0.0021 under setting [1] and 0.481 ± 0.016 (genetic background: wild type).

The sequence MKKPRKSKKAAN [KRE33 C-terminal 12 aa] registered a protein stability index under setting [1] of 0.716 ± 0.018 and a protein stability index (genetic background: wild type) of 0.714 ± 0.039.

On to MKTRLERERGLV [PTC4 C-terminal 12 aa], for which the protein stability index was 0.694 ± 0.027 under setting [1] and 0.638 ± 0.019 (genetic background: wild type).

With MMAVDTDVDMDA [YPL071C C-terminal 12 aa], the protein stability index reads like this: under setting [1], 0.668 ± 0.012; (genetic background: wild type) 0.673 ± 0.014.

In the case of MMTRENMDMGER [RRP3 C-terminal 12 aa], the protein stability index was determined as 0.669 ± 0.044 under setting [1] and 0.649 ± 0.027 (genetic background: wild type).

Turning to MNAAENEVKKEK [SUR2 C-terminal 12 aa], the protein stability index worked out at 0.688 ± 0.016 under setting [1] and 0.669 ± 0.027 (genetic background: wild type).

Take MNGIPREAFVQF [MEX67 C-terminal 12 aa]: the protein stability index by setting is: under setting [1], 0.68 ± 0.0078; (genetic background: wild type) 0.701 ± 0.022.

In turn, MSNSNSVCCTLM [STE18 C-terminal 12 aa] displayed a protein stability index under setting [1] of 0.736 ± 0.01 and a protein stability index (genetic background: wild type) of 0.7027 ± 0.0034.

Consider MSSTDWVTKPTY [AFG1 C-terminal 12 aa], for which the protein stability index is, setting by setting: under setting [1], 0.6977 ± 0.0026; (genetic background: wild type) 0.678 ± 0.017.

MTKISILKPFLH [CDC6 C-terminal 12 aa] showed a protein stability index under setting [1] of 0.711 ± 0.0076 and a protein stability index (genetic background: wild type) of 0.6156 ± 0.0052.

For MYSSKDNPASPK [TAF1 C-terminal 12 aa], the protein stability index by setting is: under setting [1], 0.693 ± 0.021; (genetic background: wild type) 0.674 ± 0.017.

With NAEKAAGQKKED [YLL053C C-terminal 12 aa], the protein stability index by setting is: under setting [1], 0.695 ± 0.034; (genetic background: wild type) 0.658 ± 0.018.

Sequence NAIEEELAKMKL [THR4 C-terminal 12 aa] had a protein stability index under setting [1] of 0.6922 ± 0.0025 and a protein stability index (genetic background: wild type) of 0.692 ± 0.035.

In the case of NDTIKLNQSIYS [ASK10 C-terminal 12 aa], the protein stability index worked out at 0.701 ± 0.02 under setting [1] and 0.7048 ± 0.0015 (genetic background: wild type).

For NEALVKTTKQKL [LPX1 C-terminal 12 aa], the protein stability index runs as follows: under setting [1], 0.703 ± 0.013; (genetic background: wild type) 0.704 ± 0.018.
